This passage reports share of gated cells (P1) in quadrant Q1 (anti-IgM-PE positive, mAb01-01-APC negative) and share of gated cells (P1) in quadrant Q2 (anti-IgM-PE positive, mAb01-01-APC positive) results from patent publication US20230272073A1.

Assay [1] concerns the target membrane-bound IGHV3-21/IGLV3-21^R110 BCR on murine TKO cells (human). Kind of assay: flow cytometry dot plot, cell mix A (1:1 IGHV3-21/IGLV3-21^R110 BCR TKO cells and BCR-negative TKO cells), 2 µg/ml anti-human IgM-PE. A general note: A flow cytometer gives signals particle by particle.
Assay [2] has as its target IGHV3-21/IGLV3-21^G110 BCR on murine TKO cells (human) (UniProt P01871). In words: flow cytometry dot plot, cell mix B (1:1 IGHV3-21/IGLV3-21^G110 BCR TKO cells and BCR-negative TKO cells), 2 µg/ml anti-human IgM-PE.

Chain of membrane-bound IGHV3-21/IGLV3-21^R110 BCR on murine TKO cells (human) (P01871 other isoform, or with tags, fused parts or gaps, chain 1 of 2): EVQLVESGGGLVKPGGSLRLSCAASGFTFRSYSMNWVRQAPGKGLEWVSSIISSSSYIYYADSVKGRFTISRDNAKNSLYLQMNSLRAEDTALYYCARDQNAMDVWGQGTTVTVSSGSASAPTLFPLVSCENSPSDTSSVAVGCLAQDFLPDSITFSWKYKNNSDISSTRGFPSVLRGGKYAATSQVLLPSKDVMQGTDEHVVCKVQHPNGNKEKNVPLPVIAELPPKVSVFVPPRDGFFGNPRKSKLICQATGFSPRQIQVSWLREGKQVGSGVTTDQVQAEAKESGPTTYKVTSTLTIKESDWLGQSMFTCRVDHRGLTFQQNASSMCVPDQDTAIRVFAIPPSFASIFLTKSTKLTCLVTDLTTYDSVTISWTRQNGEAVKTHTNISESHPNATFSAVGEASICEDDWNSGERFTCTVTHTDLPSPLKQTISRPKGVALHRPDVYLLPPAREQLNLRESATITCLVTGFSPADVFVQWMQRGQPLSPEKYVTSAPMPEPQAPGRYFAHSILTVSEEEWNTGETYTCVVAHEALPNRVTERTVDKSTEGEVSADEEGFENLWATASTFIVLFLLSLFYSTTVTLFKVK
Chain of membrane-bound IGHV3-21/IGLV3-21^R110 BCR on murine TKO cells (human) (light, as listed by the source, chain 2 of 2): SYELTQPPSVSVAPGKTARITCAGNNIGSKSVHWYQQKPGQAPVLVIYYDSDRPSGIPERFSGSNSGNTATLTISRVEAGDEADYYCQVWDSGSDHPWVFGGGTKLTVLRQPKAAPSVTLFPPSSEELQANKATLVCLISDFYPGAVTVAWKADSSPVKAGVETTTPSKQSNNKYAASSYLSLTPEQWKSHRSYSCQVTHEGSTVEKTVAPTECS
Chain of IGHV3-21/IGLV3-21^G110 BCR on murine TKO cells (human) (P01871 other isoform, or with tags, fused parts or gaps, chain 1 of 2): as the sequence (P01871 other isoform, or with tags, fused parts or gaps, chain 1 of 2) above
Chain of IGHV3-21/IGLV3-21^G110 BCR on murine TKO cells (human) (light, as listed by the source, chain 2 of 2): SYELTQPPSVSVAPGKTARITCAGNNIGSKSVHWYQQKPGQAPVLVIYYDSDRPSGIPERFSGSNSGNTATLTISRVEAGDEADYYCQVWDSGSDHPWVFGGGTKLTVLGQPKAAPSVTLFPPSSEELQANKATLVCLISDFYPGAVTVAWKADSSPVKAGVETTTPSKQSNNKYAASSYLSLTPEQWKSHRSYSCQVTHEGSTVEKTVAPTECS

Regarding “Anti-human IgM-PE, Clone: MHM-88, BioLegend Cat-No.: 314508 (antibody)”, the results for the share of gated cells (P1) in quadrant Q1 (anti-IgM-PE positive, mAb01-01-APC negative) in assay [1] and in assay [2] were 2.78% and 42.2%, respectively. The share of gated cells (P1) in quadrant Q2 (anti-IgM-PE positive, mAb01-01-APC positive) was found to be 45.5% in assay [1] and 1.11% in assay [2].
